Reference: EP4574844A1 (Numab Therapeutics AG, dated 2025)

Legend:
[1] = molecular target: human PD-L1 on the cell surface (human, UniProt Q9NZQ7 19-290); experiment: cell-based or functional assay
[2] = molecular target: human CD47 on the cell surface (human, UniProt Q08722 19-323); experiment: cell-based or functional assay
recombinant human PDL1 = molecular target: T1, recombinant human PDL1 (human, UniProt Q9NZQ7 19-238, limits assumed); experiment: SPR
T1 construct: SPR antigen; also called CD274; B7-H1

PD-L1 driven EC50 [nM], phagocytosis of H292 cells [1] [nM] | CD47 driven EC50 [nM], phagocytosis of H292 cells [2] [nM] | CD47 driven EC50 [nM], phagocytosis of RBCs [2] [nM] | Kd (recombinant human PDL1) [nM] | koff (recombinant human PDL1) [s⁻¹] | kon (recombinant human PDL1) [M⁻¹ s⁻¹] | Binder
0.14 | 9.3 | 2.78 | – | – | – | PRO4682 (antibody, human IgG1, kappa) QQVVESGGGLVQPGGSLRLSCAVSGIDLNSYAMTWVRQAPGKGLEWIGYIGSASSTYYASWASGRFTISKDNSKNTVYLQMNSLRAEDTAVYFCARGSTYINIWGQGTLVTVSSASTKGPSVFPLAPSSKSTSGGTAALGCLVKDYFPEPVTVSWNSGALTSGVHTFPAVLQSSGLYSLSSVVTVPSSSLGTQTYICNVNHKPSNTKVDKKVEPKSCDKTHTCPPCPAPELLGGPSVFLFPPKPKDTLMISRTPEVTCVVVDVSHEDPEVKFNWYVDGVEVHNAKTKPREEQYNSTYRVVSVLTVLHQDWLNGKEYKCKVSNKALPAPIEKTISKAKGQPREPQVYTLPPCREEMTKNQVSLSCAVKGFYPSDIAVEWESNGQPENNYKTTPPVLDSDGSFFLVSKLTVDKSRWQQGNVFSCSVMHEALHNHYTQKSLSLSPGKGGGGGSGGGGSDVQMTQSPSSLSASVGDRVTITCQASQSIGSNLAWYQQKPGKPPKLLIYKGGTLESGVPSRFSGSGSGTDFTLTISSLQPEDFATYYCQSTAGSSRSGNYGYVFGCGTKVTVLGGGGGSGGGGSGGGGSGGGGSQQLVESGGGLVQPGGSLRLSCAASGFSFTNNYYMCWVRQAPGKCLEWIACMLVGAWGNTYYASWANGRFTISKDNSKNTVYLQMNSLRAEDSAVYFCARARDYTWTLGGDPETSGFNLWGQGTLVKVSS heavy: not shown light: DVQMTQSPSSLSASVGDRVTITCQASQSISSWVSWYQQKPGKPPKLLIYRGGYLESGVPSRFSASGSGTDFTLTISSLQPEDFATYYCQSTDSSTYGGAFGQGTKVEIKRTVAAPSVFIFPPSDEQLKSGTASVVCLLNNFYPREAKVQWKVDNALQSGNSQESVTEQDSKDSTYSLSSTLTLSKADYEKHKVYACEVTHQGLSSPVTKSFNRGEC
0.19 | 5.33 | 2.69 | – | – | – | PRO4683 (antibody, human IgG1, kappa) not shown heavy: QQVVESGGGLVQPGGSLRLSCAVSGIDLNSYAMTWVRQAPGKGLEWIGYIGSASSTYYASWASGRFTISKDNSKNTVYLQMNSLRAEDTAVYFCARGSTYINIWGQGTLVTVSSASTKGPSVFPLAPSSKSTSGGTAALGCLVKDYFPEPVTVSWNSGALTSGVHTFPAVLQSSGLYSLSSVVTVPSSSLGTQTYICNVNHKPSNTKVDKKVEPKSCDKTHTCPPCPAPELLGGPSVFLFPPKPKDTLMISRTPEVTCVVVDVSHEDPEVKFNWYVDGVEVHNAKTKPREEQYNSTYRVVSVLTVLHQDWLNGKEYKCKVSNKALPAPIEKTISKAKGQPREPQVYTLPPCREEMTKNQVSLSCAVKGFYPSDIAVEWESNGQPENNYKTTPPVLDSDGSFFLVSKLTVDKSRWQQGNVFSCSVMHEALHNHYTQKSLSLSPGKGGGGGSGGGGSDIQMTQSPSSLSASVGDRVTITCQSSESVYSNNQLSWYQQKPGQPPKLLIYDASDLASGVPSRFSGSGSGTDFTLTISSLQPEDFATYYCAGGFSSSSDTAFGCGTKLTVLGGGGGSGGGGSGGGGSGGGGSEVQLVESGGGLVQPGGSLRLSCAASGFSLSSNAMGWVRQAPGKCLEYIGIISVGGFTYYASWAKGRFTISRDNSKNTVYLQMNSLRAEDSATYFCARDRHGGDSSGAFYLWGQGTLVKVSS light: DVQMTQSPSSLSASVGDRVTITCQASQSISSWVSWYQQKPGKPPKLLIYRGGYLESGVPSRFSASGSGTDFTLTISSLQPEDFATYYCQSTDSSTYGGAFGQGTKVEIKRTVAAPSVFIFPPSDEQLKSGTASVVCLLNNFYPREAKVQWKVDNALQSGNSQESVTEQDSKDSTYSLSSTLTLSKADYEKHKVYACEVTHQGLSSPVTKSFNRGEC
– | – | – | 0.0258 | 7.95e-05 | 3.08e+06 | PRO3723 (scFv, anti-PDL1 scFv) scFv: DIQMTQSPASLSASVGDRVTITCQASQSIGTYLAWYQQKPGKPPKLLIYRGGILASGVPSRFSGSGSGTDFTLTISSLQPEDFATYYCQSNFYSDSTTIGPNAFGTGTKVTVLGGGGGSGGGGSGGGGSGGGGSEVQLVESGGGLVQPGGSLRLSCAASGFSFNSDYWIYWVRQAPGKGLEWIACIYGGSSGNTQYASWAQGRFTISRDNSKNTVYLQMNSLRAEDTAVYFCARGYVDYGGATDLWGQGTLVTVSS
– | – | – | 0.034 | 0.00014 | 4e+06 | PRO5036 (scFv, anti-PDL1 scFv) scFv: DIQMTQSPSSLSASVGDRVTITCQASQSIGTYLAWYQQKPGKPPKLLIYRGGILASGVPSRFSGSGSGTDFTLTISSLQPEDFATYYCQSNFYSDSTTIGPNAFGTGTKVTVLGGGGGSGGGGSGGGGSGGGGSQQLVESGGGLVQPGGSLRLSCAASGFSFNSDYWIYWVRQAPGKGLEWIASIYGGSSGNTQYASWAQGRFTISKDNSKNTVYLQMNSLRAEDTAVYFCARGYVDYGGATDLWGQGTLVTVSS
– | – | – | 0.012 | 5.7e-05 | 4.7e+06 | PRO3724 (scFv, anti-PDL1 scFv) scFv: DIQMTQSPSSLSASVGDRVTITCQASQSINDYLAWYQQKPGKAPKLLIYKGGTLASGVPSRFSGSGSGTDFTLTISSLQPEDFATYYCQQGYIITDIDNVFGTGTKVTVLGGGGGSGGGGSGGGGSGGGGSQVQLQESGPGLVKPSETLSLTCKASGFSFSSGYDMCWVRQPPGKGLEWIACVVAGSVDITYYASWAKGRVTISKDSSKNQVSLKLSSVTAADTAVYYCARKDAYSDAFNLWGQGTLVTVSS
0.071 | 25.2 | 37.4 | – | – | – | PRO4914 (antibody, human IgG1, kappa) heavy 1: QQVVESGGGLVQPGGSLRLSCAVSGIDLNSYAMTWVRQAPGKGLEWIGYIGSASSTYYASWASGRFTISKDNSKNTVYLQMNSLRAEDTAVYFCARGSTYINIWGQGTLVTVSSASVAAPSVFIFPPSDEQLKSGTASVVCLLNNFYPREAKVQWKVDNALQSGNSQESVTEQDSKDSTYSLSSTLTLSKADYEKHKVYACEVTHQGLSSPVTKSFNRGECDKTHTCPPCPAPELLGGPSVFLFPPKPKDTLMISRTPEVTCVVVDVSHEDPEVKFNWYVDGVEVHNAKTKPREEQYNSTYRVVSVLTVLHQDWLNGKEYKCKVSNKALPAPIEKTISKAKGQPREPQVYTLPPCREEMTKNQVSLSCAVKGFYPSDIAVEWESNGQPENNYKTTPPVLDSDGSFFLVSKLTVDKSRWQQGNVFSCSVMHEALHNHYTQKSLSLSPGKGGGGSGGGGSDVQMTQSPSSLSASVGDRVTITCQASQSIGSNLAWYQQKPGKPPKLLIYKGGTLESGVPSRFSGSGSGTDFTLTISSLQPEDFATYYCQSTAGSSRSGNYGYVFGCGTKVTVLGGGGGSGGGGSGGGGSGGGGSQQLVESGGGLVQPGGSLRLSCAASGFSFTNNYYMCWVRQAPGKCLEWIACMLVGAWGNTYYASWANGRFTISKDNSKNTVYLQMNSLRAEDSAVYFCARARDYTWTLGGDPETSGFNLWGQGTLVKVSS heavy 2: not shown light 1: DVQMTQSPSSLSASVGDRVTITCQASQSISSWVSWYQQKPGKPPKLLIYRGGYLESGVPSRFSASGSGTDFTLTISSLQPEDFATYYCQSTDSSTYGGAFGQGTKVEIKSSASTKGPSVFPLAPSSKSTSGGTAALGCLVKDYFPEPVTVSWNSGALTSGVHTFPAVLQSSGLYSLSSVVTVPSSSLGTQTYICNVNHKPSNTKVDKKVEPKSC light 2: DIQMTQSPSSLSASVGDRVTITCQASQSIGTYLAWYQQKPGKPPKLLIYRGGILASGVPSRFSGSGSGTDFTLTISSLQPEDFATYYCQSNFYSDSTTIGPNAFGQGTKVEIKRTVAAPSVFIFPPSDEQLKSGTASVVCLLNNFYPREAKVQWKVDNALQSGNSQESVTEQDSKDSTYSLSSTLTLSKADYEKHKVYACEVTHQGLSSPVTKSFNRGEC
0.09 | – | – | – | – | – | PRO5054 (antibody) chain 1: DIQMTQSPSSLSASVGDRVTITCQSSESVYSNNQLSWYQQKPGQPPKLLIYDASDLASGVPSRFSGSGSGTDFTLTISSLQPEDFATYYCAGGFSSSSDTAFGCGTKLTVLGGGGGSGGGGSGGGGSGGGGSEVQLVESGGGLVQPGGSLRLSCAASGFSLSSNAMGWVRQAPGKCLEYIGIISVGGFTYYASWAKGRFTISRDNSKNTVYLQMNSLRAEDSATYFCARDRHGGDSSGAFYLWGQGTLVKVSSEPKSSDKTHTCPPCPAPELLGGPSVFLFPPKPKDTLMISRTPEVTCVVVDVSHEDPEVKFNWYVDGVEVHNAKTKPREEQYNSTYRVVSVLTVLHQDWLNGKEYKCKVSNKALPAPIEKTISKAKGQPREPQVYTLPPCREEMTKNQVSLSCAVKGFYPSDIAVEWESNGQPENNYKTTPPVLDSDGSFFLVSKLTVDKSRWQQGNVFSCSVMHEALHNHYTQKSLSLSPGKGGGGSGGGGSDVQMTQSPSSLSASVGDRVTITCQASQSIGSNLAWYQQKPGKPPKLLIYKGGTLESGVPSRFSGSGSGTDFTLTISSLQPEDFATYYCQSTAGSSRSGNYGYVFGCGTKVTVLGGGGGSGGGGSGGGGSGGGGSQQLVESGGGLVQPGGSLRLSCAASGFSFTNNYYMCWVRQAPGKCLEWIACMLVGAWGNTYYASWANGRFTISKDNSKNTVYLQMNSLRAEDSAVYFCARARDYTWTLGGDPETSGFNLWGQGTLVKVSS chain 2: not shown
0.13 | – | – | – | – | – | PRO5057 (antibody, human IgG1, kappa) DIQMTQSPSSLSASVGDRVTITCQSSESVYSNNQLSWYQQKPGQPPKLLIYDASDLASGVPSRFSGSGSGTDFTLTISSLQPEDFATYYCAGGFSSSSDTAFGCGTKLTVLGGGGGSGGGGSGGGGSGGGGSEVQLVESGGGLVQPGGSLRLSCAASGFSLSSNAMGWVRQAPGKCLEYIGIISVGGFTYYASWAKGRFTISRDNSKNTVYLQMNSLRAEDSATYFCARDRHGGDSSGAFYLWGQGTLVKVSSEPKSSDKTHTCPPCPAPELLGGPSVFLFPPKPKDTLMISRTPEVTCVVVDVSHEDPEVKFNWYVDGVEVHNAKTKPREEQYNSTYRVVSVLTVLHQDWLNGKEYKCKVSNKALPAPIEKTISKAKGQPREPQVYTLPPCREEMTKNQVSLSCAVKGFYPSDIAVEWESNGQPENNYKTTPPVLDSDGSFFLVSKLTVDKSRWQQGNVFSCSVMHEALHNHYTQKSLSLSPGKGGGGSGGGGSDVQMTQSPSSLSASVGDRVTITCQASQSIGSNLAWYQQKPGKPPKLLIYKGGTLESGVPSRFSGSGSGTDFTLTISSLQPEDFATYYCQSTAGSSRSGNYGYVFGCGTKVTVLGGGGGSGGGGSGGGGSGGGGSQQLVESGGGLVQPGGSLRLSCAASGFSFTNNYYMCWVRQAPGKCLEWIACMLVGAWGNTYYASWANGRFTISKDNSKNTVYLQMNSLRAEDSAVYFCARARDYTWTLGGDPETSGFNLWGQGTLVKVSS heavy: not shown light: DIQMTQSPSSLSASVGDRVTITCQASQSINDYLAWYQQKPGKAPKLLIYKGGTLASGVPSRFSGSGSGTDFTLTISSLQPEDFATYYCQQGYIITDIDNVFGQGTKVEIKRTVAAPSVFIFPPSDEQLKSGTASVVCLLNNFYPREAKVQWKVDNALQSGNSQESVTEQDSKDSTYSLSSTLTLSKADYEKHKVYACEVTHQGLSSPVTKSFNRGEC
